Experimental data as given in paper PMC7912279 (2021).

Key:
[1] = target: T1, gastrin-releasing peptide receptor (Homo sapiens, UniProt P30550); assay: LigandTracer on PC-3 cells (1:2 model, KD1)
[2] = target: T1, gastrin-releasing peptide receptor; assay: LigandTracer on PC-3 cells (1:2 model, KD2)

T1 sequence (P30550 whole entry): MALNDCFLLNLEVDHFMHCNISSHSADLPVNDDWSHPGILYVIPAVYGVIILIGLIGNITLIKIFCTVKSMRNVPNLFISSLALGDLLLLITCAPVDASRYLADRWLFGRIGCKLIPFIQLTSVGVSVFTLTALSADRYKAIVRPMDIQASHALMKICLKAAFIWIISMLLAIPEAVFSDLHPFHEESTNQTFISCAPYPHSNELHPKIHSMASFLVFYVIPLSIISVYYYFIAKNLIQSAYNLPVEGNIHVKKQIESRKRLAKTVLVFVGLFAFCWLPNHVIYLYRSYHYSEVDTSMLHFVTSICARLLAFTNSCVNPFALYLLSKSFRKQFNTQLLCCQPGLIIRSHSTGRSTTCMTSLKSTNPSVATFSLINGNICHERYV

Row | Binder | Kd [1] [nM] | Kd [2] [nM]
1 | SSSFQWAVGHL (99mTc, mercaptoacetyl-Ser-Ser-Ser-PEG2-D-Phe-Gln-Trp-Ala-Val-Gly-His-Sta-Leu-NH2) [maSSS-PEG2-RM26] | 0.061 | 1.2
2 | SESFQWAVGHL (99mTc, mercaptoacetyl-Ser-Glu-Ser-PEG2-D-Phe-Gln-Trp-Ala-Val-Gly-His-Sta-Leu-NH2) [maSES-PEG2-RM26] | 0.849 | 1.4
